Reference: patent US20110300138A1 (published 2011)

What was measured:
[1] = molecular target: TSHR260-alkaline phosphatase (TSHR260-AP) (human) (UniProt P05187); assay: TSHR260-AP bridge ELISA, full length TSHR on wells; 100 µg/mL, diluted in HBD
[2] = molecular target: TSHR260-alkaline phosphatase (TSHR260-AP) (human) (UniProt P05187); assay: TSHR260-AP bridge ELISA, full length TSHR on wells; 10 µg/mL, diluted in assay buffer
TSHR260-AP (human) [3] = assay: TSHR260-AP bridge ELISA (full length TSHR on wells, TSHR260-AP in solution); IgG 0.05 µg/mL diluted in assay buffer
[4] = molecular target: TSHR260-alkaline phosphatase (TSHR260-AP) (human) (UniProt P05187); assay: TSHR260-AP bridge ELISA, full length TSHR on wells; 0.5 µg/mL, diluted in assay buffer
TSHR260-AP (human) [5] = assay: TSHR260-AP bridge ELISA (full length TSHR on wells, TSHR260-AP in solution); IgG 0.1 µg/mL diluted in assay buffer
[6] = molecular target: human TSH receptor (full length, wild type) expressed in CHO cells (human) (UniProt P16473); assay: cell-based or functional assay
[7] = molecular target: human TSH receptor (full length, wild type) expressed on CHO cells (human) (UniProt P16473); assay: cell-based or functional assay
[8] = molecular target: human TSHR (thyroid stimulating hormone receptor) expressed in transfected CHO cells (human) (UniProt P16473); assay: cell-based or functional assay
TSHR260-AP (human) [9] = assay: TSHR260-AP bridge ELISA (full length TSHR on wells, TSHR260-AP in solution); IgG 250 µg/mL diluted in HBD serum
[10] = molecular target: TSHR260-alkaline phosphatase (TSHR260-AP) (human) (UniProt P05187); assay: TSHR260-AP bridge ELISA, full length TSHR on wells; 0.01 µg/mL, diluted in assay buffer
[11] = molecular target: TSHR260-alkaline phosphatase (TSHR260-AP) (human) (UniProt P05187); assay: TSHR260-AP bridge ELISA, full length TSHR on wells; 0.05 µg/mL, diluted in HBD
TSHR260-AP (human) [12] = assay: TSHR260-AP bridge ELISA (full length TSHR on wells, TSHR260-AP in solution); IgG 1 µg/mL diluted in HBD serum
TSHR260-AP (human) [13] = assay: TSHR260-AP bridge ELISA (full length TSHR on wells, TSHR260-AP in solution); IgG 0.5 µg/mL diluted in HBD serum
TSHR260-AP (human) [14] = assay: TSHR260-AP bridge ELISA (full length TSHR on wells, TSHR260-AP in solution); IgG 10 µg/mL diluted in HBD serum
[15] = molecular target: human TSH receptor (wild type), expressed on transfected CHO cells (human) (UniProt P16473); assay: cell-based or functional assay
[16] = molecular target: human TSHR (wild type, full length) expressed in CHO cells (human) (UniProt P16473); assay: cell-based or functional assay
[17] = molecular target: human TSH receptor (TSHR), wild type, expressed in CHO cells (human) (UniProt P16473); assay: cell-based or functional assay
[18] = molecular target: human TSHR expressed in CHO cells (human) (UniProt P16473); assay: cell-based or functional assay
[19] = molecular target: human TSHR (wild type, full length) expressed in CHO cells (human) (UniProt P16473); assay: cell-based or functional assay; remark: listed apart in the source

Chain of M22 IgG (antibody) (VH): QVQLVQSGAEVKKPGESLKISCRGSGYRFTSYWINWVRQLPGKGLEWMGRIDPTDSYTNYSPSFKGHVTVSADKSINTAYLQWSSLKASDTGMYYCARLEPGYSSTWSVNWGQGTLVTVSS
Chain of M22 IgG (antibody) (V domain): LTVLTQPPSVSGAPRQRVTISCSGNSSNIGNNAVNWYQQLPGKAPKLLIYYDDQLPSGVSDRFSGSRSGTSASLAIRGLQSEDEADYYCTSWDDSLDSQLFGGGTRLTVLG

M22 IgG (antibody) was tested, and the Mean absorbance at 405 nm (absorbance at 405 nm) [1] was 0.851, the Mean absorbance at 405 nm (absorbance at 405 nm) [2] was 0.872 and the Mean absorbance at 405 nm (absorbance at 405 nm) (TSHR260-AP (human) [3]) was 0.484. It also gave a Mean absorbance at 405 nm (absorbance at 405 nm) [4] of 0.776, a Mean absorbance at 405 nm (absorbance at 405 nm) (TSHR260-AP (human) [5]) of 0.653 and a Cyclic AMP concentration at 0.3 ng/mL M22 IgG [6] of 2.36 pmol/mL. It also gave a Cyclic AMP concentration at 1 ng/mL M22 IgG [6] of 12 pmol/mL, a Cyclic AMP concentration at 3 ng/mL M22 IgG [6] of 24.6 pmol/mL and a Cyclic AMP concentration at 10 ng/mL M22 IgG [6] of 58.9 pmol/mL. The Cyclic AMP production concentration at 1 ng/mL M22 IgG [6] was 8.1 pmol/mL, the Cyclic AMP production concentration at 3 ng/mL M22 IgG [6] was 24.3 pmol/mL and the Cyclic AMP production concentration at 10 ng/mL M22 IgG [6] was 50.3 pmol/mL. It also gave a Cyclic AMP production concentration at 30 ng/mL M22 IgG [6] of 60.9 pmol/mL, a Cyclic AMP production concentration at 100 ng/mL M22 IgG [6] of 64.6 pmol/mL and a Cyclic AMP stimulating activity at 1 ng/mL M22 IgG, units/L (NIBSC 90/672) [6] of 0.3 units/L. The Cyclic AMP stimulating activity at 1 ng/mL M22 IgG, units/mg (NIBSC 90/672) [6] was 300 units/mg, the Cyclic AMP stimulating activity at 3 ng/mL M22 IgG, units/L (NIBSC 90/672) [6] was 0.8 units/L and the Cyclic AMP stimulating activity at 3 ng/mL M22 IgG, units/mg (NIBSC 90/672) [6] was 267 units/mg. It also gave a Cyclic AMP stimulating activity of M22 IgG, mean units/mg (NIBSC 90/672; mean of 1, 3 and 10 ng/mL) [6] of 286 units/mg, a Cyclic AMP concentration; 3 ng/mL M22 IgG alone [7] of 33.1 pmol/mL and a Cyclic AMP concentration; 3 ng/mL M22 IgG [8] of 44.4 pmol/mL. The Mean absorbance at 405 nm (absorbance at 405 nm) (TSHR260-AP (human) [9]) was 0.833, the Mean absorbance at 405 nm (absorbance at 405 nm) [10] was 0.101 and the Mean absorbance at 405 nm (absorbance at 405 nm) [11] was 0.204. The Mean absorbance at 405 nm (absorbance at 405 nm) (TSHR260-AP (human) [12]) was 0.726, the Mean absorbance at 405 nm (absorbance at 405 nm) (TSHR260-AP (human) [13]) was 0.657 and the Mean absorbance at 405 nm (absorbance at 405 nm) (TSHR260-AP (human) [14]) was 0.796.
9D33 IgG (antibody) showed a % Inhibition; 9D33 IgG 0.01 µg/mL + T11 [15] of 17.1%, a % Inhibition; 9D33 IgG 0.1 µg/mL + T11 [15] of 50.4% and a % Inhibition; 9D33 IgG 1 µg/mL + T11 [15] of 87.7%. It also gave a % Inhibition; 9D33 IgG 10 µg/mL + T11 [15] of 90.1%, a % Inhibition; 9D33 IgG 100 µg/mL + T11 [15] of 94.8% and a Cyclic AMP concentration; 9D33 IgG 0.01 µg/mL + T11 [15] of 20.9 pmol/mL. For the same substance, the Cyclic AMP concentration; 9D33 IgG 0.1 µg/mL + T11 [15] was 12.5 pmol/mL, the Cyclic AMP concentration; 9D33 IgG 1 µg/mL + T11 [15] was 3.1 pmol/mL and the Cyclic AMP concentration; 9D33 IgG 10 µg/mL + T11 [15] was 2.5 pmol/mL. For the same substance, the Cyclic AMP concentration; 9D33 IgG 100 µg/mL + T11 [15] was 2.1 pmol/mL, the Cyclic AMP concentration; 9D33 IgG 100 µg/mL alone [15] was 1.3 pmol/mL and the % Inhibition; T1 serum + 100 µg/mL 9D33 IgG [6] was 95.4%. The % Inhibition; T2 serum + 100 µg/mL 9D33 IgG [6] was 96.8%, the % Inhibition; T3 serum + 100 µg/mL 9D33 IgG [6] was 94.2% and the Cyclic AMP concentration; 100 µg/mL 9D33 IgG alone [6] was 2.1 pmol/mL. It also gave a Cyclic AMP concentration; HBD + 100 µg/mL 9D33 IgG [6] of 1.9 pmol/mL, a Cyclic AMP concentration; T1 serum + 100 µg/mL 9D33 IgG [6] of 4.6 pmol/mL and a Cyclic AMP concentration; T2 serum + 100 µg/mL 9D33 IgG [6] of 2 pmol/mL. For the same substance, the Cyclic AMP concentration; T3 serum + 100 µg/mL 9D33 IgG [6] was 3.7 pmol/mL, the % Inhibition of T5 serum stimulation; 0.01 µg/mL 9D33 IgG [16] was 23% and the % Inhibition of T5 serum stimulation; 0.1 µg/mL 9D33 IgG [16] was 55.7%. For the same substance, the % Inhibition of T5 serum stimulation; 1 µg/mL 9D33 IgG [16] was 93.6%, the % Inhibition of T5 serum stimulation; 10 µg/mL 9D33 IgG [16] was 96.4% and the % Inhibition of T5 serum stimulation; 100 µg/mL 9D33 IgG [16] was 95.3%. For the same substance, the Cyclic AMP concentration; 0.01 µg/mL 9D33 IgG + T5 [16] was 49.2 pmol/mL, the Cyclic AMP concentration; 0.1 µg/mL 9D33 IgG + T5 [16] was 28.3 pmol/mL and the Cyclic AMP concentration; 1 µg/mL 9D33 IgG + T5 [16] was 4.1 pmol/mL. For the same substance, the Cyclic AMP concentration; 10 µg/mL 9D33 IgG + T5 [16] was 2.3 pmol/mL, the Cyclic AMP concentration; 100 µg/mL 9D33 IgG + T5 [16] was 3 pmol/mL and the Cyclic AMP concentration; 100 µg/mL 9D33 IgG alone [16] was 2.4 pmol/mL. For the same substance, the % Inhibition of constitutive activity; 0.001 µg/mL 9D33 IgG [17] was 0%, the % Inhibition of constitutive activity; 0.01 µg/mL 9D33 IgG [17] was 0% and the % Inhibition of constitutive activity; 0.1 µg/mL 9D33 IgG [17] was 0%. The % Inhibition of constitutive activity; 0.3 µg/mL 9D33 IgG [17] was 0%, the % Inhibition of constitutive activity; 1 µg/mL 9D33 IgG [17] was 0% and the % Inhibition of constitutive activity; 3 µg/mL 9D33 IgG [17] was 0%. It also gave a % Inhibition of constitutive activity; 10 µg/mL 9D33 IgG [17] of 0%, a % Inhibition of constitutive activity; 100 µg/mL 9D33 IgG [17] of 0% and a Cyclic AMP concentration (constitutive activity); 0.001 µg/mL 9D33 IgG [17] of 18.8 pmol/mL. It also gave a Cyclic AMP concentration (constitutive activity); 0.01 µg/mL 9D33 IgG [17] of 20.3 pmol/mL, a Cyclic AMP concentration (constitutive activity); 0.1 µg/mL 9D33 IgG [17] of 23.9 pmol/mL and a Cyclic AMP concentration (constitutive activity); 0.3 µg/mL 9D33 IgG [17] of 26.4 pmol/mL. It also gave a Cyclic AMP concentration (constitutive activity); 1 µg/mL 9D33 IgG [17] of 35.5 pmol/mL, a Cyclic AMP concentration (constitutive activity); 3 µg/mL 9D33 IgG [17] of 32.3 pmol/mL and a Cyclic AMP concentration (constitutive activity); 10 µg/mL 9D33 IgG [17] of 34.3 pmol/mL. For the same substance, the Cyclic AMP concentration (constitutive activity); 100 µg/mL 9D33 IgG [17] was 38 pmol/mL, the % Inhibition; 3 ng/mL pTSH + 0.001 µg/mL 9D33 IgG [18] was 13% and the % Inhibition; 3 ng/mL pTSH + 0.01 µg/mL 9D33 IgG [18] was 5%. The % Inhibition; 3 ng/mL pTSH + 0.1 µg/mL 9D33 IgG [18] was 28%, the % Inhibition; 3 ng/mL pTSH + 1 µg/mL 9D33 IgG [18] was 67% and the % Inhibition; 3 ng/mL pTSH + 10 µg/mL 9D33 IgG [18] was 87%. It also gave a % Inhibition; 3 ng/mL pTSH + 100 µg/mL 9D33 IgG [18] of 95%, a % Inhibition of T8 serum stimulation; 0.01 µg/mL 9D33 IgG [19] of 12% and a % Inhibition of T8 serum stimulation; 0.1 µg/mL 9D33 IgG [19] of 56%. For the same substance, the % Inhibition of T8 serum stimulation; 1 µg/mL 9D33 IgG [19] was 91%, the % Inhibition of T8 serum stimulation; 10 µg/mL 9D33 IgG [19] was 93% and the % Inhibition of T8 serum stimulation; 100 µg/mL 9D33 IgG [19] was 93%. The Cyclic AMP concentration; 0.01 µg/mL 9D33 IgG + T8 [19] was 45.8 pmol/mL, the Cyclic AMP concentration; 0.1 µg/mL 9D33 IgG + T8 [19] was 22.9 pmol/mL and the Cyclic AMP concentration; 1 µg/mL 9D33 IgG + T8 [19] was 4.7 pmol/mL. It also gave a Cyclic AMP concentration; 10 µg/mL 9D33 IgG + T8 [19] of 3.7 pmol/mL and a Cyclic AMP concentration; 100 µg/mL 9D33 IgG + T8 [19] of 3.6 pmol/mL.
